Experimental data as given in publication PMC9663308, “AAA+ protease-adaptor structures reveal altered conformations and ring specialization” (Nature Structural & Molecular Biology, 2022).
Ends that are not written are not given here.

B1: ClpA (laboratory 'wild-type' ClpA carrying M169T), hexamer (enzyme, E. coli, UniProt P0ABH9 1-758, looked up)
chain: MLNQELELSLNMAFARAREHRHEFMTVEHLLLALLSNPSAREALEACSVDLVALRQELEAFIEQTTPVLPASEEERDTQPTLSFQRVLQRAVFHVQSSGRNEVTGANVLVAIFSEQESQAAYLLRKHEVSRLDVVNFISHGTRKDEPTQSSDPGSQPNSEEQAGGEERTENFTTNLNQLARVGGIDPLIGREKELERAIQVLCRRRKNNPLLVGESGVGKTAIAEGLAWRIVQGDVPEVMADCTIYSLDIGSLLAGTKYRGDFEKRFKALLKQLEQDTNSILFIDEIHTIIGAGAASGGQVDAANLIKPLLSSGKIRVIGSTTYQEFSNIFEKDRALARRFQKIDITEPSIEETVQIINGLKPKYEAHHDVRYTAKAVRAAVELAVKYINDRHLPDKAIDVIDEAGARARLMPVSKRKKTVNVADIESVVARIARIPEKSVSQSDRDTLKNLGDRLKMLVFGQDKAIEALTEAIKMARAGLGHEHKPVGSFLFAGPTGVGKTEVTVQLSKALGIELLRFDMSEYMERHTVSRLIGAPPGYVGFDQGGLLTDAVIKHPHAVLLLDEIEKAHPDVFNILLQVMDNGTLTDNNGRKADFRNVVLVMTTNAGVRETERKSIGLIHQDNSTDAMEEIKKIFTPEFRNRLDNIIWFDHLSTDVIHQVVDKFIVELQVQLDQKGVSLEVSQEARNWLAEKGYDRAMGARPMARVIQDNLKKPLANELLFGSLVDGGQVTVALDKEKNELTYGFQSAQKHKAEAAH
notes: ClpA, E. coli, AAA+ unfoldase with D1 and D2 modules; full-length with the M169T substitution that helps overexpression; also called ClpA6; WTClpA
B2: ClpP-His6, 14-mer (enzyme)
chain: not shown
notes: ClpP peptidase, E. coli; The atomic models hold one heptameric ClpP ring; also called ClpP14; ClpP7 ring; copies: 14
B3: ClpS adaptor (natural protein, E. coli)
chain: MGKTNDWLDFDQLAEEKVRDALKPPSMYKVILVNDDYTPMEFVIDVLQKFFSYDVERATQLMLAVHYQGKAICGVFTAEVAETKVAMVNKYARENEHPLLCTLEKA
notes: ClpS, E. coli, ~10 kDa; N-terminal extension (NTE) res; 2–26 and core domain res; 27–106; The NTE (res. 2–26) and the core (res. 27–106) are both spoken of, so the whole protein is likely; also called native ClpS; source: E. coli BL21(DE3), purified as described for His6-SUMO-fusion proteins
B4: LLYVQRDSKEC-fluorescein N-degron synthetic peptide (peptide)
peptide: LLYVQRDSKEC-fluorescein
modifications: not fully specified (residue 11); printed as LLYVQRDSKEC-fluorescein
notes: synthetic N-degron peptide, molecular weight 1779.9 g/mol; also called fluorescein-labeled N-degron peptide; N-degron peptide; source: synthetic peptide (21st Century Biochemicals)

Experiments:
ClpP-His6, 14-mer = biological target: B2; experiment: cryo-EM structure; ClpA6 (4 µM), ClpP14 (8 µM), ClpS (13 µM) and YLFVQELA-GFP (13 µM) mixed in assembly buffer (50 mM HEPES-KOH pH 7.5, 300 mM KCl, 5 mM MgCl2, 2 mM TCEP, 4% glycerol, 2 mM ATPγS), 5 min at 25 °C; largest complex from Superdex-200 taken for single-particle cryo-EM; conditions: both partners purified
[1] = biological target: the molecule itself; experiment: as above
[2] = biological target: B1; experiment: as above; conditions: both partners purified
ClpS adaptor = biological target: B3; experiment: fluorescence polarisation; fluorescence anisotropy at equilibrium; ClpS alone (1.25–30 µM) titrated against 100 nM …-fluorescein; 30 °C, HO buffer, 2 mM ATPγS; conditions: both partners purified

Row | Binder | stoichiometry N (ClpP-His6, 14-mer) | stoichiometry N [1] | binding result [2] | binding result (ClpS adaptor)
1 | B1 | 2 ClpA hexamers per ClpP 14-mer | 6 |  | 
2 | B2 |  | 14 | binds | 
3 | B3 |  |  | binds | 
4 | B4 |  |  |  | binds
